Consider two variants from IntAct's records for PubMed 16127465.

B1: Growth/differentiation factor 5 (Homo sapiens), P43026 (parent)
chain: MRLPKLLTFLLWYLAWLDLEFICTVLGAPDLGQRPQGTRPGLAKAEAKERPPLARNVFRPGGHSYGGGATNANARAKGGTGQTGGLTQPKKDEPKKLPPRPGGPEPKPGHPPQTRQATARTVTPKGQLPGGKAPPKAGSVPSSFLLKKAREPGPPREPKEPFRPPPITPHEYMLSLYRTLSDADRKGGNSSVKLEAGLANTITSFIDKGQDDRGPVVRKQRYVFDISALEKDGLLGAELRILRKKPSDTAKPAAPGGGRAAQLKLSSCPSGRQPAALLDVRSVPGLDGSGWEVFDIWKLFRNFKNSAQLCLELEAWERGRAVDLRGLGFDRAARQVHEKALFLVFGRTKKRDLFFNEIKARSGQDDKTVYEYLFSQRRKRRAPLATRQGKRPSKNLKARCSRKALHVNFKDMGWDDWIIAPLEYEAFHCEGLCEFPLRSHLEPTNHAVIQTLMNSMDPESTPPTCCVPTRLSPISILFIDSANNVVYKQYEDMVVESCGCR

The variants in one test derive from B1. To be noted: with bmr1a_human BMPR1A.
For MRLPKLLTFLLWYLAWLDLEFICTVLGAPDLGQRPQGTRPGLAKAEAKERPPLARNVFRPGGHSYGGGATNANARAKGGTGQTGGLTQPKKDEPKKLPPRPGGPEPKPGHPPQTRQATARTVTPKGQLPGGKAPPKAGSVPSSFLLKKAREPGPPREPKEPFRPPPITPHEYMLSLYRTLSDADRKGGNSSVKLEAGLANTITSFIDKGQDDRGPVVRKQRYVFDISALEKDGLLGAELRILRKKPSDTAKPAAPGGGRAAQLKLSSCPSGRQPAALLDVRSVPGLDGSGWEVFDIWKLFRNFKNSAQLCLELEAWERGRAVDLRGLGFDRAARQVHEKALFLVFGRTKKRDLFFNEIKARSGQDDKTVYEYLFSQRRKRRAPLATRQGKRPSKNLKARCSRKALHVNFKDMGWDDWIIAPLEYEAFHCEGLCEFPLLSHLEPTNHAVIQTLMNSMDPESTPPTCCVPTRLSPISILFIDSANNVVYKQYEDMVVESCGCR [R438L], the “effect of a mutation on the interaction” value is reported as “increasing interaction strength”.

In the next test the parent is B1. To be noted: with bmr1b_human BMPR1B.
Take MRLPKLLTFLLWYLAWLDLEFICTVLGAPDLGQRPQGTRPGLAKAEAKERPPLARNVFRPGGHSYGGGATNANARAKGGTGQTGGLTQPKKDEPKKLPPRPGGPEPKPGHPPQTRQATARTVTPKGQLPGGKAPPKAGSVPSSFLLKKAREPGPPREPKEPFRPPPITPHEYMLSLYRTLSDADRKGGNSSVKLEAGLANTITSFIDKGQDDRGPVVRKQRYVFDISALEKDGLLGAELRILRKKPSDTAKPAAPGGGRAAQLKLSSCPSGRQPAALLDVRSVPGLDGSGWEVFDIWKLFRNFKNSAQLCLELEAWERGRAVDLRGLGFDRAARQVHEKALFLVFGRTKKRDLFFNEIKARSGQDDKTVYEYLFSQRRKRRAPLATRQGKRPSKNLKARCSRKALHVNFKDMGWDDWIIAPLEYEAFHCEGLCEFPLRSHPEPTNHAVIQTLMNSMDPESTPPTCCVPTRLSPISILFIDSANNVVYKQYEDMVVESCGCR [L441P]: the “effect of a mutation on the interaction” value is “decreasing interaction strength”.
